We go through one substance from patent US20190359653A1, “SELECTIVE PEPTIDE INHIBITORS OF FRIZZLED” (Genentech, Inc., priority 2016, published 2019).

The test has as its target FZD7 class proteins. In words: ELISA of biotinylated Wnt binding to FZD CRD-Fc with or without peptide. A general note: An ELISA detects its analyte on a solid surface through an enzyme-linked reagent.

“Biotinylated Wnt3a (from UniProt P27467 19-352) (ligand)”: the fold enhancement of binding by Fz7-21 or dFz7-21 fell in the range of 1.5 to 2 fold.
